Paper PMC8531034, “Structural insights into RNA polymerase III-mediated transcription termination through trapping poly-deoxythymidine” (Nature Communications, 2021)

T1: RPC1, subunit of human RNA polymerase III (human, UniProt O14802 1-1390)
T1 construct: RPC1, largest subunit of human RNA polymerase III (catalytic core); Subunit of the 17-subunit Pol III complex; source: Expi293F cells, transiently expressed, purified to homogeneity as part of the recombinant human Pol III complex
T1 sequence: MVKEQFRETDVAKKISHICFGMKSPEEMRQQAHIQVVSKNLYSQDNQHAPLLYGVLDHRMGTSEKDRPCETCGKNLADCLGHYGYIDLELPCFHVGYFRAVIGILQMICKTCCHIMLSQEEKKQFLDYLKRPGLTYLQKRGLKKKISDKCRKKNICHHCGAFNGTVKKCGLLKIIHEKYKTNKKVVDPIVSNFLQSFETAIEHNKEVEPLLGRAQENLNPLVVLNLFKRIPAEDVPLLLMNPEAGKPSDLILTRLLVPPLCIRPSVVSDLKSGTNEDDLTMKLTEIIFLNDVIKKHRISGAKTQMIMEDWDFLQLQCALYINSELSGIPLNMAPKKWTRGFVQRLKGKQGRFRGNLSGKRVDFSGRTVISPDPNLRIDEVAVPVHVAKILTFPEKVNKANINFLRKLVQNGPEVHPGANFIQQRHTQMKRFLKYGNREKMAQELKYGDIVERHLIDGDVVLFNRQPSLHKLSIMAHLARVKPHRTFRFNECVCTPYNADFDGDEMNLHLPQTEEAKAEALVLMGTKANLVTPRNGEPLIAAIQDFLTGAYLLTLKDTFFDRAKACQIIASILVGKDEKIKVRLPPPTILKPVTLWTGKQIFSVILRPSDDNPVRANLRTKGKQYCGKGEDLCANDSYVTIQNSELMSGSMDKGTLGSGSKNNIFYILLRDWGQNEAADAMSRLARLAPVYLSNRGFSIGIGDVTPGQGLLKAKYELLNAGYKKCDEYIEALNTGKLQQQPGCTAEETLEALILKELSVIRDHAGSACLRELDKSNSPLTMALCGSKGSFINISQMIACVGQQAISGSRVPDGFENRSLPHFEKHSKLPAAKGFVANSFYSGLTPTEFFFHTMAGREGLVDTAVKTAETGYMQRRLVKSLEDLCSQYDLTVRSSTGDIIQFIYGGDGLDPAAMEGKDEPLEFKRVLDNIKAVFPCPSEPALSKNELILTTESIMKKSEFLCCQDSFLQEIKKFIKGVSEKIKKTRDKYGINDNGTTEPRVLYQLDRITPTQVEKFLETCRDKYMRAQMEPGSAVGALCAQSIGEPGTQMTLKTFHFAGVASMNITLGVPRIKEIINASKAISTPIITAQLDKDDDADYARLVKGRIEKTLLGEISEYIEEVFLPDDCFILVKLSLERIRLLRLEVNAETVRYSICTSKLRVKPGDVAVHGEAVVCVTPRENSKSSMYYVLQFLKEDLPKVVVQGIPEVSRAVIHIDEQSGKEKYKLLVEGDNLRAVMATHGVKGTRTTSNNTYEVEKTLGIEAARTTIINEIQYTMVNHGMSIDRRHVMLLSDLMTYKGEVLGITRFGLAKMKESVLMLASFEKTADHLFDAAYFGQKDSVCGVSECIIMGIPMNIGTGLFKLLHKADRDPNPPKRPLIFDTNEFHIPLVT

B1: RPC2, subunit of human RNA polymerase III (natural protein)
chain: MDVLAEEFGNLTPEQLAAPIPTVEEKWRLLPAFLKVKGLVKQHIDSFNYFINVEIKKIMKANEKVTSDADPMWYLKYLNIYVGLPDVEESFNVTRPVSPHECRLRDMTYSAPITVDIEYTRGSQRIIRNALPIGRMPIMLRSSNCVLTGKTPAEFAKLNECPLDPGGYFIVKGVEKVILIQEQLSKNRIIVEADRKGAVGASVTSSTHEKKSRTNMAVKQGRFYLRHNTLSEDIPIVIIFKAMGVESDQEIVQMIGTEEHVMAAFGPSLEECQKAQIFTQMQALKYIGNKVRRQRMWGGGPKKTKIEEARELLASTILTHVPVKEFNFRAKCIYTAVMVRRVILAQGDNKVDDRDYYGNKRLELAGQLLSLLFEDLFKKFNSEMKKIADQVIPKQRAAQFDVVKHMRQDQITNGMVNAISTGNWSLKRFKMDRQGVTQVLSRLSYISALGMMTRISSQFEKTRKVSGPRSLQPSQWGMLCPSDTPEGEACGLVKNLALMTHITTDMEDGPIVKLASNLGVEDVNLLCGEELSYPNVFLVFLNGNILGVIRDHKKLVNTFRLMRRAGYINEFVSISTNLTDRCVYISSDGGRLCRPYIIVKKQKPAVTNKHMEELAQGYRNFEDFLHESLVEYLDVNEENDCNIALYEHTINKDTTHLEIEPFTLLGVCAGLIPYPHHNQSPRNTYQCAMGKQAMGTIGYNQRNRIDTLMYLLAYPQKPMVKTKTIELIEFEKLPAGQNATVAVMSYSGYDIEDALVLNKASLDRGFGRCLVYKNAKCTLKRYTNQTFDKVMGPMLDAATRKPIWRHEILDADGICSPGEKVENKQVLVNKSMPTVTQIPLEGSNVPQQPQYKDVPITYKGATDSYIEKVMISSNAEDAFLIKMLLRQTRRPEIGDKFSSRHGQKGVCGLIVPQEDMPFCDSGICPDIIMNPHGFPSRMTVGKLIELLAGKAGVLDGRFHYGTAFGGSKVKDVCEDLVRHGYNYLGKDYVTSGITGEPLEAYIYFGPVYYQKLKHMVLDKMHARARGPRAVLTRQPTEGRSRDGGLRLGEMERDCLIGYGASMLLLERLMISSDAFEVDVCGQCGLLGYSGWCHYCKSSCHVSSLRIPYACKLLFQELQSMNIIPRLKLSKYNE
notes: RPC2, second largest subunit of human RNA polymerase III (catalytic core; lobe, protrusion, fork loops 1 and 2); Subunit of the 17-subunit Pol III complex; source: Expi293F cells, transiently expressed, purified to homogeneity as part of the recombinant human Pol III complex
B2: RPC10, subunit of human RNA polymerase III (natural protein)
chain: not shown
notes: RPC10 of human RNA polymerase III, with N-terminal ribbon domain (N-ribbon) and C-terminal ribbon domain (C-ribbon); Subunit of the 17-subunit Pol III complex; also called C11 (yeast equivalent); source: Expi293F cells, transiently expressed, purified to homogeneity as part of the recombinant human Pol III complex
B3: RPC4-RPC5 dimer module of human RNA polymerase III (complex)
chain 1: MSEGNAAGEPSTPGGPRPLLTGARGLIGRRPAPPLTPGRLPSIRSRDLTLGGVKKKTFTPNIISRKIKEEPKEEVTVKKEKRERDRDRQREGHGRGRGRPEVIQSHSIFEQGPAEMMKKKGNWDKTVDVSDMGPSHIINIKKEKRETDEETKQILRMLEKDDFLDDPGLRNDTRNMPVQLPLAHSGWLFKEENDEPDVKPWLAGPKEEDMEVDIPAVKVKEEPRDEEEEAKMKAPPKAARKTPGLPKDVSVAELLRELSLTKEEELLFLQLPDTLPGQPPTQDIKPIKTEVQGEDGQVVLIKQEKDREAKLAENACTLADLTEGQVGKLLIRKSGRVQLLLGKVTLDVTMGTACSFLQELVSVGLGDSRTGEMTVLGHVKHKLVCSPDFESLLDHKHR
chain 2: MANEEDDPVVQEIDVYLAKSLAEKLYLFQYPVRPASMTYDDIPHLSAKIKPKQQKVELEMAIDTLNPNYCRSKGEQIALNVDGACADETSTYSSKLMDKQTFCSSQTTSNTSRYAAALYRQGELHLTPLHGILQLRPSFSYLDKADAKHREREAANEAGDSSQDEAEDDVKQITVRFSRPESEQARQRRVQSYEFLQKKHAEEPWVHLHYYGLRDSRSEHERQYLLCPGSSGVENTELVKSPSEYLMMLMPPSQEEEKDKPVAPSNVLSMAQLRTLPLADQIKILMKNVKVMPFANLMSLLGPSIDSVAVLRGIQKVAMLVQGNWVVKSDILYPKDSSSPHSGVPAEVLCRGRDFVMWKFTQSRWVVRKEVATVTKLCAEDVKDFLEHMAVVRINKGWEFILPYDGEFIKKHPDVVQRQHMLWTGIQAKLEKVYNLVKETMPKKPDAQSGPAGLVCGDQRIQVAKTKAQQNHALLERELQRRKEQLRVPAVPPGVRIKEEPVSEEGEEDEEQEAEEEPMDTSPSGLHSKLANGLPLGRAAGTDSFNGHPPQGCASTPVARELKAFVEATFQRQFVLTLSELKRLFNLHLASLPPGHTLFSGISDRMLQDTVLAAGCKQILVPFPPQTAASPDEQKVFALWESGDMSDQHRQVLLEIFSKNYRVRRNMIQSRLTQECGEDLSKQEVDKVLKDCCVSYGGMWYLKGTVQS
notes: RPC4 of human RNA polymerase III (dimer module); RPC5 of human RNA polymerase III (dimer module; holds the hotspot); the mammal-specific C-terminal domain was not seen in the PTC map; Named throughout as a heterodimer; Part of the 17-subunit Pol III complex; also called RPC4-5; C53-C37 (yeast equivalent); source: Expi293F cells, transiently expressed, purified to homogeneity as part of the …

Key:
[1] = target: T1, RPC1, subunit of human RNA polymerase …; assay: cryo-EM structure; recombinant human Pol III (17 subunits) assembled with a DNA-RNA scaffold with seven dT in the non-template strand, 1:2 molar ratio, dialysed in 20 mM HEPES pH 8.0, 150 mM NaCl, 2 mM MgCl2, 2 mM DTT; 3D classification gave two states, PTC (3.6 Å, core 3.3 Å) and EC (3.6 Å); settings: both partners purified
[2] = target: B1; assay: as above; settings: both partners purified

Row | binding result [1] | binding result [2] | Binder
1 | binds |  | B1
2 |  | binds | B2
3 |  | binds | B3
